# From the nanobody polyreactivity screen of Harvey et al. (2022)
# Experiment: yeast display, Sf9 membrane polyspecificity reagent, FACS + sequencing; frameworks hold sequencing errors
# Method in brief: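 A nanobody's polyreactivity label depends on the gate it was sorted from. Yeast display cells were stained with 10% biotinylated, detergent-solubilized Sf9 membrane reagent for 1 hour at 4 °C, enriched on streptavidin microbeads and sorted by FACS. The low and high (top ~1%) gates were set on anti-HA fluorescence for expression and streptavidin fluorescence for reagent binding.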
row,Sequence,polyreactivity (PSR sort gate)
1,QVQLVESGGGLVQAGGSLRISCAASGITFYANVMGWYRQAPGKARELVAAISARRGSTYYADSVKGRFTISRDNAKNTVYLQMNSLKPEDTAVYYCATREAYRQQGGYGYWGQGTQVTVSS,high polyreactivity
2,QVQLVESGGGLVQAGGSLRISCAASGITFYGYDMGWYRQAPGKERELVAAISKSGGSTHYADSVKGRFTISRDNAKNTVYLQMNSLKPEDTAVYYCAAAYWTRLRRMDYWGQGTQVTVSS,high polyreactivity
3,QVQLVESGGGLVQAGGSLRISCAASGLTFDRYAMGWYRQAPGKERELVAAISGSGSSTYYADSAKGRFTISRDNAKNTVYLQMNSLKPEDTAVYYCAADRDLGYDTRYNYWGQGTQVTVSS,low polyreactivity
4,QVQLVESGGGLVQAGGSLRISCAASGLTFRLYVMGWYRQAPGKERELVATISRSGGSTHYADSVKGRFTISRDNAKNTVYLQMNSLKPEDTAVYDCAARLFYFGSDFDYWGQGTQVTVSS,high polyreactivity
5,QVQLVESGGGLVQAGGSLRISCAASGMIFDWYTMGWYRQAPGKERELVAAISWRGGRTYYADSVKGRFTISRDNAQNTVYLQMNSLKPEDTAVYYCAAEGLFTGRVSRFADDHWGQGTQVTVSS,low polyreactivity
6,QVQLVESGGGLVQAGGSLRISCAASGNIFSYYAMGWYRQAPGKERELVAAISSGGSTYYADSVKGRFTISRDNGMNTVYLQMNSLKPEDTAVYYCNKLAYVGRYGYWGQGTEVTVSS,high polyreactivity
7,QVQLVESGGGLVQAGGSLRISCAASGNIFVDYAMGWYTQAPGKERELVATITRTGDSTTYADSVKGRFTISRDNAKNTVYLQMNSLKPEDTAVYYCNTDLRLVYRTKGFISWGYDYWGQGTQVTVSS,low polyreactivity
8,QVQLVESGGGLVQAGGSLRISCAASGPTFGYNGMGWYRQAPGKERELVAAINSGGNTNYADSVKGRFTISRDNAKYTVDFQLNSLKPEDTAVYYCAKYGTLYEPVPNEYDYWGQGTQVTVSS,low polyreactivity
9,QVQLVESGGGLVQAGGSLRISCAASGPTFPLYAMGGNRQAPGKERELVAAIRTGGSTNYADSVKGRFTISRDNAKNTVYLQMNSLKPEDTAVSYCAAVQRTDRSAHYSWGHGTQVTVSS,low polyreactivity
10,QVQLVESGGGLVQAGGSLRISCAASGRIFAGYSMGWYRQAPGKERELVAAIRTRGGSTYYADSVKGRFTISRDKAKNTVYLQMNSLKPEDTEVYYCAATPTWYIWYTYDYWGQGPQVTVSS,high polyreactivity
11,QVQLVESGGGLVQAGGSLRISCAASGRIFDTYVMGWYRQAPGKERELVAAISGSGGSTYYADSVKGRFTISRDNAKNTVYLQMNSLKPEDTAVYYCAAARRYYAYRYDYWGQGTQVTVSS,high polyreactivity
12,QVQLVESGGGLVQAGGSLRISCAASGRIFGGYAMGWYRQAPGKERELVAAITSGARTKYADSVKGRFTISRDNAKNTVYLQMNSLKPEDTAVYYCAADGFYDGDYWGQGTQVTVSS,high polyreactivity
13,QVQLVESGGGLVQAGGSLRISCAASGRIFGLYAMGWYRQAPGKERELVATINNSGGSTYYADSVKGRFTISRDNAKNTVYLEMKSLKPEDTAVYYCNAEFLYAASFIEYDYWGQVTQVTVSS,high polyreactivity
14,QVQLVESGGGLVQAGGSLRISCAASGRIFGTNAMGWYRQAPGKERELVADITSGGSTNYADSVKGRFTISRDNAKNTVYLQMNSLKPEDTAVYYCAAVVIGDLRWYRDEYWGQGTQVTVSS,low polyreactivity
15,QVQLVESGGGLVQAGGSLRISCAASGRIFKYYGMGWYRQAPGKERELVAAITRGDSTNYADSVKGRFTISRDNAKNTVYLQMNSLKPEETAVYYCNVGTRRGYDYWGQGTQVTVSS,high polyreactivity
16,QVQLVESGGGLVQAGGSLRISCAASGRIFNYYDMGWYRQAPGKERELVAAISWRGTSTRYADSVKGRFTISRDNAKNTVYLQMQSLKPEDTAVYYCAADDYARRFSFKYDYWGQGTQVTVSS,high polyreactivity
17,QVQLVESGGGLVQAGGSLRISCAASGRIFRGYAMGWYRQAPGKEMELVAGITTSGGDTSYADSVKGRFTISRDNAKNTVYLQMNSLKPEDTAVYYCNASPFYYRPRYPMDYWGQGTQVTVSS,high polyreactivity
